From patent US20120039802A1 (published 2012)

B1: 331-D03 peptide-displaying phage (SEQ ID NO: 077) (peptide)
peptide: AGYWHCKGPPHFACEFHGT
B2: 333-H03 peptide-displaying phage (SEQ ID NO: 060) (peptide)
peptide: AGYFECKGPPTFECWLSGT
B3: 323-A11 peptide-displaying phage (SEQ ID NO: 059) (peptide)
peptide: AGYTSCVGPPSFECTPYGT
B4: 330-B07 peptide-displaying phage (SEQ ID NO: 053) (peptide)
peptide: AGSFACKGPPTFACVEFGT
B5: 452-F01 peptide-displaying phage (SEQ ID NO: 006) (peptide)
peptide: GSEYSCRTSRCIFSAP
B6: 550-C09 peptide-displaying phage (SEQ ID NO: 062) (peptide)
peptide: AGHYWCAGPPTFICMGPGT
B7: 551-B02 peptide-displaying phage (SEQ ID NO: 069) (peptide)
peptide: AGTWHCAGPPWFTCYMDGT
B8: 330-C10 peptide-displaying phage (SEQ ID NO: 054) (peptide)
peptide: AGNYFCAGSPSFSCYFMGT
B9: 334-C08 peptide-displaying phage (SEQ ID NO: 067) (peptide)
peptide: AGGWECTGPPWFQCGYYGT
B10: 330-G09 peptide-displaying phage (SEQ ID NO: 071) (peptide)
peptide: AGHWICVGPPTFSCQWHGT
B11: 332-C03 peptide-displaying phage (SEQ ID NO: 076) (peptide)
peptide: AGVNSCLGPPTFECYQMGT
B12: 574-H03 peptide-displaying phage (SEQ ID NO: 008) (peptide)
peptide: GSSTICPGTACVDHAP
B13: 333-F09 peptide-displaying phage (SEQ ID NO: 050) (peptide)
peptide: AGQFKCAGPPSFACWMTGT
B14: 336-G04 peptide-displaying phage (SEQ ID NO: 051) (peptide)
peptide: AGWFQCKGPPSFECERHGT
B15: 538-F08 peptide-displaying phage (SEQ ID NO: 057) (peptide)
peptide: AGFVNCKGPPTFECILTGT
B16: 333-C05 peptide-displaying phage (SEQ ID NO: 068) (peptide)
peptide: AGDIVCTGHPYFECWSWGT
B17: 329-D02 peptide-displaying phage (SEQ ID NO: 061) (peptide)
peptide: AGHAWCSGPPRFECWPPGT
B18: 548-F06 peptide-displaying phage (SEQ ID NO: 056) (peptide)
peptide: AGWISCAGPPTFACWPGGT
B19: 551-G12 peptide-displaying phage (SEQ ID NO: 070) (peptide)
peptide: AGSWECTGPPSFHCQWYGT
B20: 336-D07 peptide-displaying phage (SEQ ID NO: 075) (peptide)
peptide: AGYSVCKGYPSFECAFFGT
B21: 548-E08 peptide-displaying phage (SEQ ID NO: 063) (peptide)
peptide: AGETTCLGWPTFVCVDYGT
B22: 569-C03 peptide-displaying phage (SEQ ID NO: 007) (peptide)
peptide: GSFILCWWTFCDTNAP
B23: 332-A05 peptide-displaying phage (SEQ ID NO: 064) (peptide)
peptide: AGHGTCRGWPTFECIYFGT
B24: 334-G06 peptide-displaying phage (SEQ ID NO: 052) (peptide)
peptide: AGWTHCIGPPTFECIPMGT
B25: 330-C01 peptide-displaying phage (SEQ ID NO: 065) (peptide)
peptide: AGDWHCQGPPAFMCWMIGT
B26: 331-G04 peptide-displaying phage (SEQ ID NO: 055) (peptide)
peptide: AGSWHCAGPPSFECWEFGT
B27: 545-A09 peptide-displaying phage (SEQ ID NO: 066) (peptide)
peptide: AGLPKCSGPPWFSCYYGGT
B28: 547-H07 peptide-displaying phage (SEQ ID NO: 058) (peptide)
peptide: AGDWICHGPPMFECEWVGT
B29: 335-D11 peptide-displaying phage (SEQ ID NO: 074) (peptide)
peptide: AGSIQCVGPPSFECTPYGT
B30: 331-F01 peptide-displaying phage (SEQ ID NO: 072) (peptide)
peptide: AGEWWCHGPPEFLCYWTGT
B31: 571-C05 peptide-displaying phage (SEQ ID NO: 001) (peptide)
peptide: GSWIICWWDNCGSSAP

molecular target: T1, cMet-Fc fusion protein (extracellular domain of the cMet receptor expressed as an Fc-fusion protein) (human, UniProt P08581 25-932); test: phage ELISA, cMet-Fc vs TRAIL-Fc
T1 construct: extracellular domain; also called soluble cMet-Fc-fusion protein; soluble cMet receptor; not shown: Fc part
Procedure: Protein phage ELISAs using peptide-displaying phage isolates from the various selection campaigns were performed to determine specificity of the peptides for cMet versus an unrelated Fc-fusion protein (TRAIL-Fe). Briefly, 384-well plates were coated overnight at 4 C with 0.5 μg/mL of cMet-Fc fusion protein or TRAIL-Fc fusion protein (background). The plates were blocked for 2 hours 37 C with 3% (w/v) BSA in PBS containing 0.05% (v/v) Tween-20 (PBST). The plates were washed with PBST and 100 μL of peptide-displaying phage were added to each well. The plates were incubated for 2 hours at room temperature and washed with PBST. cMet-binding peptide-displaying phage were detected using an HRP-conjugated anti-M13 antibody.

T1 sequence (P08581 25-932): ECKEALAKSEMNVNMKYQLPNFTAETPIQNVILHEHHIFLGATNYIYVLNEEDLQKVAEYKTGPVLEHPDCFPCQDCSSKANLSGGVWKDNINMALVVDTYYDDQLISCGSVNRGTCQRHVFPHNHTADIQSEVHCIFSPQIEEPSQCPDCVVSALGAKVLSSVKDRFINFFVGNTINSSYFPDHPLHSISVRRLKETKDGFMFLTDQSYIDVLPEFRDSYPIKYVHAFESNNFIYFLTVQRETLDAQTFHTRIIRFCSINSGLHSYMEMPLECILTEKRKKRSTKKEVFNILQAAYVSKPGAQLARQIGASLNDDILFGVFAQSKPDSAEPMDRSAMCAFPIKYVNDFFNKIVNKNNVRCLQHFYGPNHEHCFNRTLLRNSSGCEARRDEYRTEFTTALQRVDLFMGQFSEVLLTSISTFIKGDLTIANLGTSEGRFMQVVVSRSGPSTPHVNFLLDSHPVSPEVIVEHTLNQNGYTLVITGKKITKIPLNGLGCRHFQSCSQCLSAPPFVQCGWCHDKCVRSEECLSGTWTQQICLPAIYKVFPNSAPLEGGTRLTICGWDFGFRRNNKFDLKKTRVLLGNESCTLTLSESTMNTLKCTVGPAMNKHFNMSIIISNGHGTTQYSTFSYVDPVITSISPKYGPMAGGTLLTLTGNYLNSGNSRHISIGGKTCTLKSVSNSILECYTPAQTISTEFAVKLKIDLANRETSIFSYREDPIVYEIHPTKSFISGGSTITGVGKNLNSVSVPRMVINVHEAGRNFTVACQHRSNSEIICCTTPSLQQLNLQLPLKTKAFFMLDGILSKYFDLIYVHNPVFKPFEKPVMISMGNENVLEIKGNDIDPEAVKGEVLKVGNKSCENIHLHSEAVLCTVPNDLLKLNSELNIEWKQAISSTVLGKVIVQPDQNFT

In order of rising “Protein ELISA (fold over background)” value:
1. B5  3.2 fold
2. B12  3.2 fold
3. B17  3.2 fold
4. B22  3.4 fold
5. B19  3.9 fold
6. B25  4.7 fold
7. B31  4.9 fold
8. B21  5.3 fold
9. B14  5.4 fold
10. B1  5.5 fold
11. B11  5.7 fold
12. B20  5.8 fold
13. B23  6 fold
14. B16  6.3 fold
15. B29  6.7 fold
16. B9  8 fold
17. B24  8 fold
18. B2  8.1 fold
19. B7  9 fold
20. B6  10.2 fold
21. B15  12.3 fold
22. B30  12.6 fold
23. B8  13.4 fold
24. B10  13.5 fold
25. B27  13.5 fold
26. B18  14.3 fold
27. B13  14.8 fold
28. B28  15.9 fold
29. B4  18.1 fold
30. B26  18.3 fold
31. B3  21.2 fold

molecular target: T1, cMet-Fc fusion protein (extracellular …); test: phage ELISA on cMet-Fc, competitor HGF 100 ng/mL
Procedure: (§1) These assays were conducted using the peptide-displaying phage discovered from the initial selection and screening campaigns using the first generation peptide libraries. Briefly, 96-well plates were coated overnight at 4 C with 0.5 μg/mL of cMet-Fc fusion protein or TRAIL-Fc fusion protein (background). The plates were blocked for 2 hours at 37 C with 3% BSA in PBST. […] This was followed by an addition of 30 μL of peptide-displaying phage overnight culture to each well. The plates were incubated for 2 hours at room temperature, washed with PBST and cMet-binding peptide-displaying phage was detected using an HRP-conjugated anti-M13 antibody.

In order of falling “% of binding in the absence of HGF” value:
1. B5  117%
2. B21  102%
3. B31  102%
4. B22  95%
5. B12  88%
6. B19  88%
7. B16  83%
8. B30  77%
9. B18  76%
10. B9  70%
11. B7  69%
12. B1  64%
13. B28  60%
14. B4  58%
15. B25  58%
16. B24  56%
17. B26  56%
18. B29  56%
19. B2  55%
20. B15  55%
21. B17  53%
22. B13  52%
23. B8  48%
24. B14  46%
25. B20  44%
26. B27  44%
27. B10  42%
28. B3  41%
29. B23  40%
30. B11  37%
31. B6  25%

molecular target: T2, human cMet expressed on 3T3 cells (human, UniProt P08581 25-1390); test: whole cell phage ELISA, 3T3 human cMet vs 3T3
T2 construct: whole, on cells; cells fixed with glutaraldehyde; also called cell surface-expressed human cMet; 3T3 cells that over-express human cMet
Procedure: Whole cell ELISAs were performed using 3T3 cells that over-express human cMet. […] Briefly, 96-well plates were seeded with 10⁵ cells per well. The plates were centrifuged for 5 minutes at 1600 rpm to pellet the cells. The resulting cell layer was fixed with 0.1% (v/v) glutaraldehyde for 12 minutes at 37 C. […] Peptide-displaying phage also were blocked in the above solution for 1 hour at 37 C. 100 μL of blocked phage was then added to each well and the plates were incubated for 1 hour at room temperature. The plates were washed with PBST. cMet-binding peptide-displaying phage were detected using an HRP-conjugated anti-M13 antibody.

T2 sequence (P08581 25-1390): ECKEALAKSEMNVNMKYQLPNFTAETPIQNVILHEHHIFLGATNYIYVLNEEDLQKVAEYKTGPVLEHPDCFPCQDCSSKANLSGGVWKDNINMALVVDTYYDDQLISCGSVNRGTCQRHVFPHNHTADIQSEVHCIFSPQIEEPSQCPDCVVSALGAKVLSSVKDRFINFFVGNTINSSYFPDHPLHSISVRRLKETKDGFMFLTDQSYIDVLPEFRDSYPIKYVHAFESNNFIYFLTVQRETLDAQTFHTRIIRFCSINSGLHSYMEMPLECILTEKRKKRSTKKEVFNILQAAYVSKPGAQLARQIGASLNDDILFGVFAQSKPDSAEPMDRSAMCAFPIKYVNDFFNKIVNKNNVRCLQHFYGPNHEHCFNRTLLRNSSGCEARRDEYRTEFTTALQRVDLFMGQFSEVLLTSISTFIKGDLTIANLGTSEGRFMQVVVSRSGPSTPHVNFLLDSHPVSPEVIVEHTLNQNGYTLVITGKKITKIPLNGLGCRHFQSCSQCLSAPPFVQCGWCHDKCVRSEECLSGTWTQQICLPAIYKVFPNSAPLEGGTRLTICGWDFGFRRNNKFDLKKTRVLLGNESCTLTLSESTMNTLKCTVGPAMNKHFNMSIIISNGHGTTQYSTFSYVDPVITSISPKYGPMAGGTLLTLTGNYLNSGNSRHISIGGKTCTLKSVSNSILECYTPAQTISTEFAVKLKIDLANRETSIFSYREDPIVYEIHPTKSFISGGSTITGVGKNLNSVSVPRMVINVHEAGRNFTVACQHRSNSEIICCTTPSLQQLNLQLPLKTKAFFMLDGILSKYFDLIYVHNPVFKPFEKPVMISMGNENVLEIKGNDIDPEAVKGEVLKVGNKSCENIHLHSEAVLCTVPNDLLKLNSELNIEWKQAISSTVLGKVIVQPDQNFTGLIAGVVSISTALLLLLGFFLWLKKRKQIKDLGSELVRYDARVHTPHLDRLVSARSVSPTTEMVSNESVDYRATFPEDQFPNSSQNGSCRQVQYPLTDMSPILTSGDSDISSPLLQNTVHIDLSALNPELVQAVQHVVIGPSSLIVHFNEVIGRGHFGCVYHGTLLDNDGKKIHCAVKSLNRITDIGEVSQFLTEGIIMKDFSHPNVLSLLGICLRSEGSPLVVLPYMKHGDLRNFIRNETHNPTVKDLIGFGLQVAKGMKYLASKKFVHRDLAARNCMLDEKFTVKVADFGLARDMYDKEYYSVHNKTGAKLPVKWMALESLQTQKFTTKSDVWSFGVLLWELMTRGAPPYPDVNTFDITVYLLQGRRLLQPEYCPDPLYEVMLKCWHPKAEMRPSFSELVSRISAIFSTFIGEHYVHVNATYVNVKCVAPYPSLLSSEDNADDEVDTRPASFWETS

In order of rising “WC ELISA (fold over background)” value:
1. B28  1.17 fold
2. B11  1.2 fold
3. B15  1.23 fold
4. B18  1.23 fold
5. B4  1.27 fold
6. B12  1.27 fold
7. B17  1.27 fold
8. B21  1.27 fold
9. B7  1.3 fold
10. B22  1.3 fold
11. B24  1.3 fold
12. B25  1.3 fold
13. B27  1.3 fold
14. B31  1.3 fold
15. B5  1.33 fold
16. B8  1.33 fold
17. B14  1.33 fold
18. B16  1.33 fold
19. B20  1.33 fold
20. B19  1.37 fold
21. B29  1.37 fold
22. B1  1.4 fold
23. B6  1.4 fold
24. B10  1.4 fold
25. B23  1.4 fold
26. B2  1.43 fold
27. B3  1.43 fold
28. B13  1.43 fold
29. B9  1.47 fold
30. B26  1.47 fold
31. B30  1.47 fold

molecular target: T1, cMet-Fc fusion protein (extracellular …); test: phage ELISA on cMet-Fc, competitor HGF 500 ng/mL
Procedure: as §1

In order of rising “% of binding in the absence of HGF” value:
1. B3  18%
2. B12  18%
3. B18  18%
4. B23  21%
5. B27  22%
6. B14  23%
7. B6  25%
8. B8  25%
9. B10  26%
10. B17  31%
11. B13  32%
12. B26  36%
13. B2  37%
14. B20  37%
15. B29  37%
16. B4  40%
17. B7  43%
18. B15  43%
19. B24  43%
20. B25  43%
21. B28  45%
22. B19  46%
23. B21  50%
24. B1  55%
25. B9  57%
26. B16  66%
27. B30  73%
28. B31  74%
29. B22  89%
30. B11  95%
31. B5  110%
